For 14 molecules, normalised SPOT signal, Boehringer light units (BLU); mean over the file's lines of this peptide results are on record in article PMC314469, “Protein Interaction Networks by Proteome Peptide Scanning” (PLoS Biology, 2004).

The chains are these.
T1: Boi1 SH3 (BOI1_YEAST), P38041
T1 chain: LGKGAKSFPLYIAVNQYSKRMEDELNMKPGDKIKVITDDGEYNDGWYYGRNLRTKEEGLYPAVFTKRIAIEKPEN

T2: Boi2 SH3 (BOI2_YEAST), P39969
T2 chain: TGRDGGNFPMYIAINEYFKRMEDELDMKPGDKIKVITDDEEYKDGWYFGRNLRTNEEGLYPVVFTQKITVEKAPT

T3: Myo5 SH3 (MYO5_YEAST), Q04439
T3 chain: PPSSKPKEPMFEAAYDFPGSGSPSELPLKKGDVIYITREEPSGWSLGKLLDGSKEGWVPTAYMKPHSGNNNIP

T4: Rvs167 SH3 (RV167_YEAST), P39743
T4 chain: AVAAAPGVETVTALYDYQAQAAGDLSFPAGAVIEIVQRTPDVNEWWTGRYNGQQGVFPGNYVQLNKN

T5: Yfr024 SH3 (LSB3_YEAST), P43603
T5 chain: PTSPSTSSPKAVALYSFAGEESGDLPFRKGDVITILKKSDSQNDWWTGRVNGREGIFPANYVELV

T6: Yhr016c SH3 (YSC84_YEAST), P32793
T6 chain: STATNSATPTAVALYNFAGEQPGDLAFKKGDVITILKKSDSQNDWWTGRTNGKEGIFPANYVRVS

The target of one test is T1, Boi1 SH3 (BOI1_YEAST), P38041. Nature of the test: SPOT array.
DEPIRYAPGDPIEK [YNL132W 471-484] showed a normalised SPOT signal, Boehringer light units (BLU); mean over the file's lines of this peptide of 57.2.
Still for that read-out and setting: next, DIPLKQVPENPMPT [YIL155C 374-387]: 110; DILKKESPDVPLFD [YBR155W 341-354]: 170; DIPRRYIPITPADL [YMR126C 79-92]: 14100.
The molecule DIGSKKLPTGPSKK [YER164W 1276-1289] came in with a normalised SPOT signal, Boehringer light units (BLU); mean over the file's lines of this peptide of 3940.
In the case of DIKTRSVPKIPSIE [YBR163W 320-333], the normalised SPOT signal, Boehringer light units (BLU); mean over the file's lines of this peptide came out at 344.
In the case of DETRKLTPSSPGDD [YPR173C 368-381], the normalised SPOT signal, Boehringer light units (BLU); mean over the file's lines of this peptide turned out to be 0.
The same measure, in the same setting: next, DFIGRKSPDLPEYL [YLL006W 228-241]: 137; DENSKWQPSDPFTM [YOL157C 233-246]: 91.8; DKIFKTDPNEPAND [YDL174C 572-585]: 66.5.
The same measure, in the same setting: next, DKKKKKYPRKPKKN [YDR485C 332-345]: 223.
On the same count and under the same terms, next, DGKLKHIPRRPYEI [YEL007W 26-39]: 1850.
For the molecule DFRGRAYPLSPHFN [YFL036W 825-838], the normalised SPOT signal, Boehringer light units (BLU); mean over the file's lines of this peptide was 5020.
Regarding DKFIKLIPMRPVLI [YDR479C 286-299], the normalised SPOT signal, Boehringer light units (BLU); mean over the file's lines of this peptide worked out at 117.

The next test addresses T2, Boi2 SH3 (BOI2_YEAST), P39969. The test can be described thus: SPOT array.
As to DEPIRYAPGDPIEK [YNL132W 471-484], the normalised SPOT signal, Boehringer light units (BLU); mean over the file's lines of this peptide was determined as 1.
Same read-out and setting: then DIPLKQVPENPMPT [YIL155C 374-387], with 12.3; and DILKKESPDVPLFD [YBR155W 341-354], with 17.3.
In turn, DIPRRYIPITPADL [YMR126C 79-92] showed a normalised SPOT signal, Boehringer light units (BLU); mean over the file's lines of this peptide of 52.6.
On the same count and under the same terms, then DIGSKKLPTGPSKK [YER164W 1276-1289], with 34.4; and DIKTRSVPKIPSIE [YBR163W 320-333], with 23.2.
The same measure, in the same setting: next, DETRKLTPSSPGDD [YPR173C 368-381]: 16.6.
On the same count and under the same terms, then DFIGRKSPDLPEYL [YLL006W 228-241], with 41.4; and DENSKWQPSDPFTM [YOL157C 233-246], with 27.
As to DKIFKTDPNEPAND [YDL174C 572-585], the normalised SPOT signal, Boehringer light units (BLU); mean over the file's lines of this peptide was determined as 26.3.
The same measure, in the same setting: next, DKKKKKYPRKPKKN [YDR485C 332-345]: 0.
The same measure, in the same setting: then DGKLKHIPRRPYEI [YEL007W 26-39], with 3.5; and DFRGRAYPLSPHFN [YFL036W 825-838], with 1390.
Molecule DKFIKLIPMRPVLI [YDR479C 286-299] gave a normalised SPOT signal, Boehringer light units (BLU); mean over the file's lines of this peptide of 0.3.

Another test addresses T3, Myo5 SH3 (MYO5_YEAST), Q04439. The test can be described thus: SPOT array.
DEPIRYAPGDPIEK [YNL132W 471-484] registered a normalised SPOT signal, Boehringer light units (BLU); mean over the file's lines of this peptide of 106.
As for DIPLKQVPENPMPT [YIL155C 374-387], the normalised SPOT signal, Boehringer light units (BLU); mean over the file's lines of this peptide was found to be 62.9.
The same measure, in the same setting: next, DILKKESPDVPLFD [YBR155W 341-354]: 146; DIPRRYIPITPADL [YMR126C 79-92]: 33; DIGSKKLPTGPSKK [YER164W 1276-1289]: 220.
On the same count and under the same terms, next, DIKTRSVPKIPSIE [YBR163W 320-333]: 102; DETRKLTPSSPGDD [YPR173C 368-381]: 231; DFIGRKSPDLPEYL [YLL006W 228-241]: 139.
On the same count and under the same terms, next, DENSKWQPSDPFTM [YOL157C 233-246]: 285.
DKIFKTDPNEPAND [YDL174C 572-585] returned a normalised SPOT signal, Boehringer light units (BLU); mean over the file's lines of this peptide of 99.1.
The same measure, in the same setting: then DKKKKKYPRKPKKN [YDR485C 332-345], with 532; and DGKLKHIPRRPYEI [YEL007W 26-39], with 307; and DFRGRAYPLSPHFN [YFL036W 825-838], with 785.
The same measure, in the same setting: then DKFIKLIPMRPVLI [YDR479C 286-299], with 253.

Another test concerns the target T4, Rvs167 SH3 (RV167_YEAST), P39743. Nature of the test: SPOT array.
As to DEPIRYAPGDPIEK [YNL132W 471-484], the normalised SPOT signal, Boehringer light units (BLU); mean over the file's lines of this peptide was 26.2.
Same read-out and setting: then DIPLKQVPENPMPT [YIL155C 374-387], with 26.
On the same count and under the same terms, then DILKKESPDVPLFD [YBR155W 341-354], with 0; and DIPRRYIPITPADL [YMR126C 79-92], with 956; and DIGSKKLPTGPSKK [YER164W 1276-1289], with 38.1.
Still for that read-out and setting: next, DIKTRSVPKIPSIE [YBR163W 320-333]: 52200; DETRKLTPSSPGDD [YPR173C 368-381]: 52.7; DFIGRKSPDLPEYL [YLL006W 228-241]: 162.
Molecule DENSKWQPSDPFTM [YOL157C 233-246] returned a normalised SPOT signal, Boehringer light units (BLU); mean over the file's lines of this peptide of 30.2.
The molecule DKIFKTDPNEPAND [YDL174C 572-585] had a normalised SPOT signal, Boehringer light units (BLU); mean over the file's lines of this peptide of 47.5.
Still for that read-out and setting: then DKKKKKYPRKPKKN [YDR485C 332-345], with 66.5.
The same measure, in the same setting: next, DGKLKHIPRRPYEI [YEL007W 26-39]: 68.6; DFRGRAYPLSPHFN [YFL036W 825-838]: 1830; DKFIKLIPMRPVLI [YDR479C 286-299]: 39.

The target in a further test is Sho1 SH3 (SHO1_YEAST), P40073. Nature of the test: SPOT array.
Chain of Sho1 SH3 (SHO1_YEAST), P40073 (P40073 295-366): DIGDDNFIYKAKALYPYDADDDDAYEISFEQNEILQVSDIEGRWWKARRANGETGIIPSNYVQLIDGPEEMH
DEPIRYAPGDPIEK [YNL132W 471-484] displayed a normalised SPOT signal, Boehringer light units (BLU); mean over the file's lines of this peptide of 54.9.
In turn, DIPLKQVPENPMPT [YIL155C 374-387] came in with a normalised SPOT signal, Boehringer light units (BLU); mean over the file's lines of this peptide of 15.
Still for that read-out and setting: next, DILKKESPDVPLFD [YBR155W 341-354]: 26.9; DIPRRYIPITPADL [YMR126C 79-92]: 33.7; DIGSKKLPTGPSKK [YER164W 1276-1289]: 608.
The same measure, in the same setting: then DIKTRSVPKIPSIE [YBR163W 320-333], with 31.3; and DETRKLTPSSPGDD [YPR173C 368-381], with 33.5.
In the case of DFIGRKSPDLPEYL [YLL006W 228-241], the normalised SPOT signal, Boehringer light units (BLU); mean over the file's lines of this peptide came out at 17.3.
The same measure, in the same setting: next, DENSKWQPSDPFTM [YOL157C 233-246]: 27.7; DKIFKTDPNEPAND [YDL174C 572-585]: 16.7; DKKKKKYPRKPKKN [YDR485C 332-345]: 114.
Same read-out and setting: then DGKLKHIPRRPYEI [YEL007W 26-39], with 48.8.
The same measure, in the same setting: then DFRGRAYPLSPHFN [YFL036W 825-838], with 975; and DKFIKLIPMRPVLI [YDR479C 286-299], with 112.

A further test addresses T5, Yfr024 SH3 (LSB3_YEAST), P43603. Nature of the test: SPOT array.
As for DEPIRYAPGDPIEK [YNL132W 471-484], the normalised SPOT signal, Boehringer light units (BLU); mean over the file's lines of this peptide amounted to 0.5.
As to DIPLKQVPENPMPT [YIL155C 374-387], the normalised SPOT signal, Boehringer light units (BLU); mean over the file's lines of this peptide stood at 13.5.
Consider DILKKESPDVPLFD [YBR155W 341-354], for which the normalised SPOT signal, Boehringer light units (BLU); mean over the file's lines of this peptide was found to be 0.
Molecule DIPRRYIPITPADL [YMR126C 79-92] registered a normalised SPOT signal, Boehringer light units (BLU); mean over the file's lines of this peptide of 748.
DIGSKKLPTGPSKK [YER164W 1276-1289] showed a normalised SPOT signal, Boehringer light units (BLU); mean over the file's lines of this peptide of 50.
Same read-out and setting: then DIKTRSVPKIPSIE [YBR163W 320-333], with 48300; and DETRKLTPSSPGDD [YPR173C 368-381], with 62.3; and DFIGRKSPDLPEYL [YLL006W 228-241], with 59.3.
The same measure, in the same setting: next, DENSKWQPSDPFTM [YOL157C 233-246]: 12.9; DKIFKTDPNEPAND [YDL174C 572-585]: 0; DKKKKKYPRKPKKN [YDR485C 332-345]: 245.
With DGKLKHIPRRPYEI [YEL007W 26-39], the normalised SPOT signal, Boehringer light units (BLU); mean over the file's lines of this peptide was determined as 315.
Regarding DFRGRAYPLSPHFN [YFL036W 825-838], the normalised SPOT signal, Boehringer light units (BLU); mean over the file's lines of this peptide came out at 1600.
The same measure, in the same setting: then DKFIKLIPMRPVLI [YDR479C 286-299], with 1380.

The target in a further test is T6, Yhr016c SH3 (YSC84_YEAST), P32793. The test can be described thus: SPOT array.
DEPIRYAPGDPIEK [YNL132W 471-484] yielded a normalised SPOT signal, Boehringer light units (BLU); mean over the file's lines of this peptide of 9.2.
Same read-out and setting: next, DIPLKQVPENPMPT [YIL155C 374-387]: 4.6; DILKKESPDVPLFD [YBR155W 341-354]: 18.3.
Same read-out and setting: next, DIPRRYIPITPADL [YMR126C 79-92]: 116; DIGSKKLPTGPSKK [YER164W 1276-1289]: 12.3.
DIKTRSVPKIPSIE [YBR163W 320-333] came in with a normalised SPOT signal, Boehringer light units (BLU); mean over the file's lines of this peptide of 36000.
The same measure, in the same setting: next, DETRKLTPSSPGDD [YPR173C 368-381]: 19.2; DFIGRKSPDLPEYL [YLL006W 228-241]: 37.2.
The same measure, in the same setting: then DENSKWQPSDPFTM [YOL157C 233-246], with 10; and DKIFKTDPNEPAND [YDL174C 572-585], with 14.1; and DKKKKKYPRKPKKN [YDR485C 332-345], with 15.7.
Still for that read-out and setting: next, DGKLKHIPRRPYEI [YEL007W 26-39]: 48.7; DFRGRAYPLSPHFN [YFL036W 825-838]: 257.
The molecule DKFIKLIPMRPVLI [YDR479C 286-299] registered a normalised SPOT signal, Boehringer light units (BLU); mean over the file's lines of this peptide of 95.2.
